In EP4371564A2 one finds luciferase activity data, which are given here for one molecule.

The target of the assay is integrin molecules on human cells. Briefly: cell-based or functional assay.

B1: RGD-Hoc (SEQ ID NO: 19), P18056 1-376 (protein)
chain: CDCRGDCFCSAMTFTVDITPKTPTGVIDETKQFTATPSGQTGGGTITYAWSVDNVPQDGAEATFSYVLKGPAGQKTIKVVATNTLSEGGPETAEATTTITVKNKTQTTTLAVTPASPAAGVIGTPVQFTAALASQPDGASATYQWYVDDSQVGGETNSTFSYTPTTSGVKRIKCVAQVTATDYDALSVTSNEVSLTVNKKTMNPQVTLTPPSINVQQDASATFTANVTGAPEEAQITYSWKKDSSPVEGSTNVYTVDTSSVGSQTIEVTATVTAADYNPVTVTKTGNVTVTAKVAPEPEGELPYVHPLPHRSSAYIWCGWWVMDEIQKMTEEGKDWKTDDPDSKYYLHRYTLQKMMKDYPEVDVQESRNGYIIHKTALETGIIYTYPKLAAALEHHHHHH
B1 registered a luciferase activity of 5 fold.
